The values below come from the supplement of paper PMC9112550, “Optimization of the antimicrobial peptide Bac7 by deep mutational scanning” (BMC Biology, 2022).

This data set relates to Escherichia coli TOP10. Nature of the data set: shrunken log2 fold change of peptide-encoding DNA abundance (4.5 h post-induction vs induction); higher = less antimicrobial activity (less host growth inhibition). The settings on record: time post-induction: 4.5 h; library: site-saturation at positions 5, 18, 19, 20.
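Further: peptides expressed intracellularly from a pBAD plasmid library in pooled LB shake-flask culture, induced with 0.3% L-arabinose, DNA abundance read by NGS, three biological replicates, DESeq2 with apeglm shrinkage.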

Regarding RRIRPRPPRLPRPRPRPVLNPRP, the “shrunken log2 fold change” value is -0.113.
With RRIRGRPPRLPRPRPRPEVNPRP, the “shrunken log2 fold change” value was 1.62.
Regarding RRIRCRPPRLPRPRPRPSEHPRP, the “shrunken log2 fold change” value was -0.236.
Turning to RRIRRRPPRLPRPRPRPEMDPRP, the “shrunken log2 fold change” value was 0.186.
The same measure for RRIRWRPPRLPRPRPRPQPYPRP: -0.166; for RRIRLRPPRLPRPRPRPLPPPRP: 0.678.
On to RRIRYRPPRLPRPRPRPAHMPRP, for which the “shrunken log2 fold change” value is -0.015.
For the sequence RRIRYRPPRLPRPRPRPYIYPRP, the “shrunken log2 fold change” value was -2.06.
For the sequence RRIRSRPPRLPRPRPRPYFIPRP, the “shrunken log2 fold change” value is -1.06.
On to RRIRNRPPRLPRPRPRPEHEPRP, for which the “shrunken log2 fold change” value was determined as 0.127.
The same measure for RRIRIRPPRLPRPRPRPRLPPRP: 0.161.
On to RRIRTRPPRLPRPRPRPMAPPRP, for which the “shrunken log2 fold change” value amounted to 0.294.
For RRIRHRPPRLPRPRPRPPRMPRP the value was 0.284.
In the case of RRIRDRPPRLPRPRPRPTRQPRP, the “shrunken log2 fold change” value was found to be 0.228.
For RRIRMRPPRLPRPRPRPPQGPRP the value was 0.834.
On to RRIRMRPPRLPRPRPRPNYHPRP, for which the “shrunken log2 fold change” value was -0.525.
For RRIRARPPRLPRPRPRPLDHPRP the value was 0.267.
For RRIRIRPPRLPRPRPRPPCDPRP the value was -0.48; for RRIRVRPPRLPRPRPRPIRHPRP, -0.112.
As to RRIRWRPPRLPRPRPRPCDCPRP, the “shrunken log2 fold change” value is -0.291.
Consider RRIRPRPPRLPRPRPRPCDWPRP, for which the “shrunken log2 fold change” value is 0.0592.
The same measure for RRIRRRPPRLPRPRPRPSCGPRP: 0.0769; for RRIRTRPPRLPRPRPRPMEDPRP: -0.00968; for RRIRLRPPRLPRPRPRPSKQPRP: -0.572.
The same measure for RRIRDRPPRLPRPRPRPEREPRP: -0.0248; for RRIRNRPPRLPRPRPRPQCFPRP: 0.242; for RRIRLRPPRLPRPRPRPYRVPRP: -0.00141.
The same measure for RRIRLRPPRLPRPRPRPWTFPRP: -0.0155; for RRIRSRPPRLPRPRPRPSCNPRP: -0.377; for RRIRLRPPRLPRPRPRPNPKPRP: -0.0548.
For RRIRWRPPRLPRPRPRPKNGPRP, the “shrunken log2 fold change” value was -0.156.
The same measure for RRIRPRPPRLPRPRPRPGAMPRP: 0.454; for RRIRTRPPRLPRPRPRPLHEPRP: -0.191; for RRIRHRPPRLPRPRPRPLRIPRP: 0.156.
The same measure for RRIRGRPPRLPRPRPRPCEVPRP: 0.0371; for RRIRGRPPRLPRPRPRPDENPRP: 0.987; for RRIRARPPRLPRPRPRPVHKPRP: 0.2.
For the sequence RRIRCRPPRLPRPRPRPFDRPRP, the “shrunken log2 fold change” value is -0.115.
Regarding RRIRIRPPRLPRPRPRPWMYPRP, the “shrunken log2 fold change” value was -0.184.
The same measure for RRIRSRPPRLPRPRPRPQQTPRP: 0.0905; for RRIRKRPPRLPRPRPRPWRSPRP: -0.0167; for RRIRIRPPRLPRPRPRPIPQPRP: -0.14.
On to RRIRIRPPRLPRPRPRPTEFPRP, for which the “shrunken log2 fold change” value is -0.408.
Consider RRIRYRPPRLPRPRPRPHRMPRP, for which the “shrunken log2 fold change” value is -1.51.
The same measure for RRIRKRPPRLPRPRPRPYYPPRP: -0.227; for RRIRPRPPRLPRPRPRPTTEPRP: 0.109.
In the case of RRIRCRPPRLPRPRPRPAPCPRP, the “shrunken log2 fold change” value came to 0.122.
For RRIRYRPPRLPRPRPRPWQPPRP, the “shrunken log2 fold change” value was -0.274.
The same measure for RRIRSRPPRLPRPRPRPRERPRP: 0.431; for RRIRVRPPRLPRPRPRPSREPRP: 0.0823.
For the sequence RRIRWRPPRLPRPRPRPYLVPRP, the “shrunken log2 fold change” value is -0.195.
As for RRIRARPPRLPRPRPRPKAAPRP, the “shrunken log2 fold change” value worked out at 0.878.
With RRIRCRPPRLPRPRPRPFNMPRP, the “shrunken log2 fold change” value was -0.052.
The same measure for RRIRERPPRLPRPRPRPYSWPRP: -0.486.
The same measure for RRIRFRPPRLPRPRPRPNSDPRP: -0.209.
The same measure for RRIRGRPPRLPRPRPRPRQCPRP: 0.216; for RRIRRRPPRLPRPRPRPNIIPRP: -0.0888; for RRIRIRPPRLPRPRPRPYPSPRP: -0.00978.
Consider RRIRFRPPRLPRPRPRPLKEPRP, for which the “shrunken log2 fold change” value was -0.273.
For RRIRTRPPRLPRPRPRPHKIPRP the value was -0.587.
With RRIRYRPPRLPRPRPRPRAKPRP, the “shrunken log2 fold change” value came out at 0.404.
The same measure for RRIRYRPPRLPRPRPRPSEDPRP: -0.123.
The same measure for RRIRARPPRLPRPRPRPPAVPRP: 0.927.
For the sequence RRIRCRPPRLPRPRPRPHSKPRP, the “shrunken log2 fold change” value was -0.438.
For RRIRSRPPRLPRPRPRPYYYPRP, the “shrunken log2 fold change” value was -0.507.
As to RRIRPRPPRLPRPRPRPRRFPRP, the “shrunken log2 fold change” value is 0.0399.
For RRIRHRPPRLPRPRPRPFENPRP the value was -0.0293.
The same measure for RRIRDRPPRLPRPRPRPMGAPRP: 1.43; for RRIRGRPPRLPRPRPRPEIWPRP: 1.34.
In the case of RRIRTRPPRLPRPRPRPVSVPRP, the “shrunken log2 fold change” value is -0.0287.
The same measure for RRIRWRPPRLPRPRPRPMNYPRP: -0.364; for RRIRIRPPRLPRPRPRPLWLPRP: -0.208.
For RRIRVRPPRLPRPRPRPLIGPRP the value was 0.0681.
Regarding RRIRSRPPRLPRPRPRPFIIPRP, the “shrunken log2 fold change” value was -0.34.
For RRIRLRPPRLPRPRPRPIIMPRP the value was -0.252.
The same measure for RRIRSRPPRLPRPRPRPTTIPRP: 0.127; for RRIRKRPPRLPRPRPRPVFSPRP: 0.111.
For RRIRRRPPRLPRPRPRPVGCPRP the value was 0.472; for RRIRCRPPRLPRPRPRPPWMPRP, 0.248.
As to RRIRTRPPRLPRPRPRPDWTPRP, the “shrunken log2 fold change” value is -0.179.
For RRIRVRPPRLPRPRPRPIHSPRP the value was -0.252; for RRIRKRPPRLPRPRPRPSADPRP, 0.027; for RRIRGRPPRLPRPRPRPSDIPRP, 0.399.
For RRIRMRPPRLPRPRPRPRITPRP, the “shrunken log2 fold change” value was determined as 0.122.
The same measure for RRIRLRPPRLPRPRPRPTCKPRP: -0.0465; for RRIRHRPPRLPRPRPRPEHQPRP: -0.291.
As for RRIRYRPPRLPRPRPRPPLFPRP, the “shrunken log2 fold change” value was -0.0411.
The same measure for RRIRERPPRLPRPRPRPVMQPRP: 0.095.
For RRIRWRPPRLPRPRPRPPKLPRP the value was 0.152.
The same measure for RRIRFRPPRLPRPRPRPLSYPRP: -0.0166; for RRIRFRPPRLPRPRPRPAKKPRP: 0.188.
